US5864018

What was measured:
[1] = biological target: human recombinant soluble RAGE/flag fusion protein (human); test: excess lactoferrin against 125I-AGE-BSA binding to immobilized RAGE, Exp. 2; the filing leaves open whether lactoferrin acts through RAGE or AGE
[2] = biological target: human recombinant soluble RAGE/flag fusion protein (human); test: excess native BSA against 125I-AGE-BSA binding to immobilized RAGE, Exp. 2
[3] = biological target: human recombinant soluble RAGE/flag fusion protein (human); test: excess native BSA against 125I-AGE-BSA binding to immobilized RAGE, Exp. 3
[4] = biological target: AGE-BSA (bovine) (UniProt P02769); test: excess free RAGE/DCC chimera against 125I-AGE-BSA binding to immobilized RAGE, Exp. 1

lactoferrin (ligand) gave a % Binding [1] of 50%.

With native BSA (from UniProt P02769) the % Binding [2] was over 100% and the % Binding [3] was over 100%.

“recombinant soluble RAGE/DCC chimeric protein (receptor)” gave a % Binding [4] of 40%.
